Experimental data taken from US20150023971A1 (H LUNDBECK A S, published 2015).

B3: recombinant human p75 neurotrophin receptor/Fc chimera (R&D systems) (Fc fusion, UniProt P08138 29-250, looked up)
chain: KEACPTGLYTHSGECCKACNLGEGVAQPCGANQTVCEPCLDSVTFSDVVSATEPCKPCTECVGLQSMSAPCVEADDAVCRCAYGYYQDETTGRCEACRVCEAGSGLVFSCQDKQNTVCEECPDGTYSDEANHVDPCLPCTVCEDTERQLRECTRWADAECEEIPGRWITRSTPPEGSDSTAPSTQEPEAPPEQDLIASTVAGVVTTVMGSSQPVVTRGTTDN
notes: Bought from R&D systems; also called p75-IgG-Fc chimeric protein; p75^NTR; not shown: IgG Fc part of the bought chimera

Assays:
[1] = target: B3; experiment: SPR (Biacore), 50-500 nM NGF over immobilised p75-IgG-Fc
[2] = target: T1, purified human Sortilin extracellular domain (produced in stably transfected CHO cells) (human, UniProt Q99523 78-755); experiment: SPR (Biacore), 50-500 nM NGF over immobilised Sortilin extracellular domain
T1 construct: also called immobilized Sortilin
T1 sequence: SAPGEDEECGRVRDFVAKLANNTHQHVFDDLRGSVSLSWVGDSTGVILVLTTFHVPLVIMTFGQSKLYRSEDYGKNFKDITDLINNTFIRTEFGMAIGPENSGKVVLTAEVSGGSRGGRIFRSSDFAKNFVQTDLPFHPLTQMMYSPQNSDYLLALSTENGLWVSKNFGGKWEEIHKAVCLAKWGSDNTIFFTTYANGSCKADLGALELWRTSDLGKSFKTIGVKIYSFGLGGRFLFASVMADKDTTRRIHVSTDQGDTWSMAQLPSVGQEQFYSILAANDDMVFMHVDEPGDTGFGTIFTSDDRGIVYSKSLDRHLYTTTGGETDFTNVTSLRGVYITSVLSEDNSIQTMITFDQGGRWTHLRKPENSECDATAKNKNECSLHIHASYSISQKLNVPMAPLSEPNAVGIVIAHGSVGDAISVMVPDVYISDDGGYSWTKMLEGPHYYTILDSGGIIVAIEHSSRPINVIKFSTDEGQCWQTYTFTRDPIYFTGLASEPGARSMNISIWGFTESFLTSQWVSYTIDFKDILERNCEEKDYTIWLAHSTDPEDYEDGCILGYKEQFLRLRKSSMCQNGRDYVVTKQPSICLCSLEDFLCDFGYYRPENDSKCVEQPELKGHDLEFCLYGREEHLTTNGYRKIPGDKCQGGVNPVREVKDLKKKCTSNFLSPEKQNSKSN

[3] = target: T1, purified human Sortilin extracellular …; experiment: SPR (Biacore), NGF at 200 and 500 nM over immobilised Sortilin extracellular domain; the text gives ~8 nM for this pair
[4] = target: T2, recombinant human TrkA/Fc chimera (R&D systems) (human, UniProt P04629-2 33-407); experiment: SPR (Biacore), 50-500 nM NGF over immobilised TrkA-IgG-Fc
T2 construct: Bought from R&D systems; also called TrkA-IgG-Fc; not shown: IgG Fc part of the bought chimera
T2 sequence (P04629 other isoform, or with tags, fused parts or gaps mutant): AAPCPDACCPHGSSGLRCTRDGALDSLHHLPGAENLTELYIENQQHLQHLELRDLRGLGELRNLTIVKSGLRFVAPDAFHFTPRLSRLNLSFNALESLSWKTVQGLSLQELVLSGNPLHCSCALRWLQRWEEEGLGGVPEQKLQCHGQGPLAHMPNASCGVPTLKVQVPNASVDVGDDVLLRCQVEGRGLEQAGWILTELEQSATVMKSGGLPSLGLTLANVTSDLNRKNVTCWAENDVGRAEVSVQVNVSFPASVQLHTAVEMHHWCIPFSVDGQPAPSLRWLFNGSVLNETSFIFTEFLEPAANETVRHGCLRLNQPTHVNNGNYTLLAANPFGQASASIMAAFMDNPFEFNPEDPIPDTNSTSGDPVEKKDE

[5] = target: T1, purified human Sortilin extracellular …; experiment: SPR (Biacore), immobilised Sortilin extracellular domain; other preparations of mature BDNF
[6] = target: T1, purified human Sortilin extracellular …; experiment: SPR (Biacore), immobilised Sortilin extracellular domain (94 fmol/mm2); mature BDNF from Promega (#G1491), lower panel of FIG. 7
[7] = target: T3, Human recombinant proNGF (produced and purified in E. coli) (human, UniProt P01138 19-241); experiment: SPR (Biacore), 25-500 nM proNGF over immobilised p75-IgG-Fc
T3 construct: Made as in Rattenholl et al 2001
T3 sequence (P01138 other isoform, or with tags, fused parts or gaps limits assumed): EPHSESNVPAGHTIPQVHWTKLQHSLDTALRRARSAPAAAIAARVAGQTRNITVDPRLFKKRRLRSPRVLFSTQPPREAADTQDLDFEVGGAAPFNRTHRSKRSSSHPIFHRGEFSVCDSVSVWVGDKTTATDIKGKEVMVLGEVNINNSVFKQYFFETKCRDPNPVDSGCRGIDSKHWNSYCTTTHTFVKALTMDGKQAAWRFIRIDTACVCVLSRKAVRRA

B1: Mature murine NGF (Austral Biologicals) (ligand, mouse, UniProt P01139 122-241, looked up)
chain: SSTHPVFHMGEFSVCDSVSVWVGDKTTATDIKGKEVTVLAEVNINNSVFRQYFFETKCRASNPVESGCRGIDSKHWNSYCTTTHTFVKALTTDEKQAAWRFIRIDTACVCVLSRKATRRG
notes: mature; Bought protein
Kd [1]: ~1 nM
Kd [2]: ~8 nM
Kd [3]: ~87 nM
Kd [4]: ~2 nM

B2: Mature recombinant human BDNF (Promega #G1491) (ligand)
chain: HSDPARRGELSVCDSISEWVTAADKKTAVDMSGGTVTVLEKVPVSKGQLKQYFYETKCNPMGYTKEGCRGIDKRHWNSQCRTTQSYVRALTMDSKKRIGWRFIRIDTSCVCTLTIKRGR
notes: Bought protein; also called mature BDNF
Kd [5]: 10 nM
Kd [6]: ~40 nM

B3
Kd [7]: ~12 nM
